Measured values published in the NTF2 design screens of Basanta et al. (2020).

Experiment: protease stability score; higher = more stable; yeast display proteolysis, trypsin and chymotrypsin;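 also: log10 excess protease needed over predicted unfolded state with 0 meaning unfolded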

Row | Sequence | protease stability score
1 | DEERDERVATKVAEAMATGDPEKVMEQAPPNAEMRIGDKHFTGEEHIKQALLEWKRDADHIQVDHVSVQNGRAHMDMQFTINGRKRRYTLRVEVHNGKAKTVSVREP | 0.315
2 | DEERDLDIAVEAAKNLLTGNEERFSKMAPPDVRIEYGDKTVHGREQANTAVKEFRDRVDHIEIKRIEKDGNKAHIEFIANVNGHRFTVTMVVDVSNGRVNQVDIRARNKEDQEKMKG | 0.06
3 | DEEREAKEWMELFEDQFRQGNEHEVNKLMDKDARIHVGEKHVSGRNQAKKELKEHMKRADHIHIQLHEVDSRPGRMILDFTINQQVNGRRSSDKVRARFSKRNGRWYQESETQG | 0.104
4 | DEEREEQARKLLRAEEQGDPDRAKQMMDPNARVQVGNKRVHGRSEIATQLEKRKRRARYEIKHVTIRARGNRVDVKINVQVVVNGRPHHFTYIMHLTFQGDKAKNATVRIDEDTLRQVDS | 0.171
5 | DEEREKEFATRIATALRTNDPKKMVKNFDENAKFDVGDNRIKGREELKEWVDELHKEFDHIEIHDVQAHNGRAKINLKLEHNGRDTVLDATVVVENGRAKSAKQDQS | -0.448
6 | DEERELEELMQRLISLMKNGNPKEVAKLLDPNVRVQYGDKRLHGREQAIRRIESLRRHVDHVTMSIESLQVEGDKVSARIEAVYDVNGTQDQRTIELELRQVNGKLRFKHITFK | 0.017
7 | DEEREVKKRIKHIIRVLENGDEDRAEELADPNTTARVGDKRVHGMNNYMRELARKARRADHVEVTIKHMDLNGEKFDIRLHIVIHVDGRREKFDLRFVITRQGDKHVAVDVQVS | 1.47
8 | DEERKAEEMAKSIIKVWQSGDHHQQQRNADEDVRFEIGDKRINGDHQLEDWVKKIKEQYDHIEVRIKSVTRQGDKLVVIAQVVYNENGHRRQVTVRFVAVDHNGTIVLKRAIYR | 0.406
9 | DEERKEQLLEIYKAIDTGNPEKVKELADPNAHVQYGDKSVHGMDDAVRQLEKRRKEIRIHWDVKSVHVEGNKVDVVAENEEEHNGHPRSHTVRVNAEFQGDKMKNAHYQSDK | -0.202
10 | DEERKKQAEHFMRVYQQGNEEELNKLMDPNVKANVGDKEWQGREKMAKDTREKLEHSKLQLHSVSVDAQGNNIRIDVSFVVNHNGEPRRNHQTIIIHIDNGRITRLEVKDTS | 0.004
11 | DEERKKRVEEALRQEQQGNEEDYSELMDENVKITIGDKTIRGSKEAVRHFKEKMTQMRIELRDYRIQVHGNKVSVDLKYVNDHDGQPRHQKATATMDMTNGRVQSREVDNKP | 0.186
12 | DEERLAKEVNDQYQHIMDTGDPDQARKLFDENARVDIGDKQYHGREEAVEAFQQRMNRVDHIDIKIDEVKVRNGEIDVKFEINQNSNGKNVHRNIRFTMRVNGDKYAIVDMHVQ | 0.367
13 | DEERLQKIIEKAFKVIQNGNKEEAQKLGKPNVEYHYLDKTLHGPKAVEHAVEHVKKVGAEVKQQEIEVHGGTAKAVFQYHVGDKTVQTTAEVTYEGDKMKKARVKISEEVKKMMHRG | -0.076
14 | DEERMHQLEKLFRTNNFEEFAKQADKDVTAKVGNETYTGREDMEKFARRLREQVDSIHYDRVEVKGDKFKADAQFDFNGKRVRFTVEVEFHNGKLQHMRMQATTHELEETLAKLLS | 1.41
15 | DEERMHRLKKLFDTNDNEQMSKQASENARMQVGNKVFHGREDIEKFILEERRRADHITYKHVTEHGNKVQAHVVKVVNGRSIDVIFEVEIDNGRIKRMSIQARDSEDQNKAEKALS | 0.345
16 | DEERMLKVAETVIRAVRNGNADKAVKYIDEGGEATFGDTKLKGPEHIYEYVKKFKDQGIEVHYKEEHKEGDKVTVHTQAHLGDATADFEVHYQVKGDKLDRMEVRMDKEQLKKFRDS | -0.347
17 | DEERNEKAAHEMLKVFQRGDPDQFRDLIDPNARANVGDKKYHGRENLTHMFKHFVHRADHLEMQHVKVSGETVEIHIRAKINGKTIDFTIRIIVDNGKAREINFDPDMLKRMRG | 1.23
18 | DEERNELAEHVVKAWHHNDPDRVQKLVDPNVRFEIGDKEVHGREEYARIQRTEKDQWDLQIEVKHITVHNGRVDVDFDWRIERDGRPRTNQQVVIFEVDNGKVKRVSFQERK | -0.279
19 | DEERNERHAQDLMRALENNDEERLRQLLDKDAKLNVGDHEIHGSENIVKRLAEFLKRADHLRFERMTVRGDTVQISFEVEHDGERRKYEVHITVHNGHVQSITIQKQ | 2.49
20 | DEERNKEMKEVLETNDFKDLANQADENAKAQIGDKEYHGREEVRDAMKSLQERIDSVEVRDIHVQGDKFSIEAVMDVDGDKVDVVIEMRVHNGNIKFVRINARNESVKEKVEQVVS | 1.79
21 | DEERQDQAEEFWKILQTGDPDKAREELRDDVHVHVGDKVIHGMEDVDRDIERVRKQIRVEFDVRHIDSQGERISVEANIMENENGKPETAQLTVIIDMHNGRVVRIVFEKRK | 1.96
22 | DEERQHRVAKSLVDILKDGNPRKMKELMDKDATVRVGDKNIRGRKNIATFWTDVRRRIDHVEIKHVDVRGDKIDMNINFDVNGRHVHYTINARVRNGKLTSMHLDPDNLEHLKE | 0.591
23 | DEERQKEALKVHKKGDFDKILDQADEDVQVVIGDKKYHGREEATTALKKILDSIDHLKFESITIQNGRVRVDAILEFNGQQNRVIIVVEVHNGKVKKVEIRVTDPSQEDKLKKRVD | -0.203
24 | DEERQQKVADDLATIMTNGNPDQMLELADKDVKAKYGDTEIHGREKVREYWKTIRDQADHIHIDTFKAENGQVDIQAHAKFNGKDYKFNLRIEFDNGRIKSIVVQEQ | 0.278
25 | DEERRDLAHRIFEAWKRNDPDTLRNLIDPNAKMVVGEDVLRGDEQIVKHVQDVHNRINMKIDIKSVRVEGDKVIVHAEVTANVNGRPVRIEVTFVIKNHNGKVKKIVIDVDPRDQRKMDS | -0.13

Row | Sequence | protease stability score
26 | DEERRKNLAREYNKALTSGDENKVRRLADENVRIEIGDHVVSGRENLSKLVRDDQERVDRFRVQDVHVEGDKIQFDIQVEINGKTINITIEMQLHNGRIKKIKFDPRAVEQLKG | 0.612
27 | DEERSAHKFLKDMEKLMRTGDFQEVAKLFDKHAKVEVGDKRVHGREQIIRTNQQWEKRVDSVDLKIQHVSVKGEDVDVHYNMVLRYNGRNDNRVYRFVATVHGDKVRITHMELE | 0.348
28 | DEERSNLVESVFRALEHNDEKRLNELFDPNVNVQIGDDKIRGREELVKFMRTLKRQMRIRYRTMDLHVQGDKVVVRATFEVNVNGTPHNVTMEFHAEVHNGKFKHARIKIPEEKLKTMQS | 1.57
29 | DEERVERLARTAFKAAVNGDEDKLRKMLKPDVKYKYIDEEREGEDVAKFVVKLMKKIGAEVRLKRLEVRGDTVKADFDYKQGDKTVRTKAEVKYKGDKVDEARVELTDEVKKVLTRG | 0.125
30 | DEERVHQAVRIIKHNDPDKLRKLADPNAKFQVGDREIHGMEEYADIVAQIMEKADKITFTDIQVHNGRLTIEVVINVNGRNIQFQIFLEFHNGKLKHAHIQATSEEVQRQLNSLMG | 0.674
31 | DEERVKDLVKKIFKDIRNGDEERVRKKGKPDVKYEYADKTFEGEDAVRFIVEILKKVGAEDKTQNETVHGDKAQANFQYDKGDQTAQTTAQVEYKGDKVDKMRVKISEEVKKVVEQG | -0.116
32 | DEERVKQLAEKAFKAIQNNDQEKLEKMGKPNVQYEYVDKKYEGPEVVKVVIKVVQKIGAKLETQEQEVKGDTARATFQYKNGDKTMQTTAEVRYKGDKMEEFRMELSDEVKKVVHQG | -0.207
33 | DEERVKQLAEKVFKYVIKGDKDEVRKQGKPDVKYKYIDKEYEGPDALEKAVKLVKRLGMKAETKELKVKGNTVRAKFEYRKGDQTMKTEVEVHYEGDVVKEAKVKISDEVKKFVHQG | 0.309
34 | DEERVKQVQKKAFEAVMKGNDDEMRKIGKPNVRYEYIDEKNEGQEAVDVVIQLVKKVGAEAKVRRTEVKGDTVRAIFVYNDGDQTVQTKVEVKYEGDKVKEARVELTDEVQKVLHKG | -0.027
35 | DEERVNDIAHKIAQNLRTNDEEQLVRMMDENAKVTVGEHRIDGREQIRTMWHKIKQHVDHVEVKHVEARGDRIRIIIVLNHNGRQRTIVMYVSIHNGHIKVLKIESQ | 1.51
36 | DEERVQQMLEQAFKAIQNGNEEQMQKLGKPNVEYKYVDHEYEGPDAARVMVQLVKRVGAEVKQQKVEVKGNTATAVFQYHDGDQTVETTAEVEYEGDKMKKARVELTDEVKKVVHKG | -0.117
37 | DEERVRKVVEKLVDAVTRGDKDDIKKMLKKHVEFKLVDQEYKGVDQAVKVVKELHDYGMEVHVKEVRVKGDTAHATTVWKKGNTEAHVKVEYHVRDDKVEKVKIQWTEEAQKALKHG | 0.283
38 | DEERVRQIADKMFKAIISGNSKDVQQVVKPNIQYEYGDEKYQGPKVVDQLVKVVKKIGAEVREREKTVHGDTMTAVFQYHKGDTTVQTEAEVKYEGDKAKRLRVKLSEEAQKVIKQG | -0.114
39 | DEERYKQLMEKAFKMIKQGNEEEARKLLKPDVEYHYADKTFRGEEAAQFIVKVVQKLGAEDHNQRQEVNGDTMKADFRYTQGDQTVQTKAEVIYKGDKATEARVEMSDEVKKVLDQG | -0.052
40 | DEERYKRLFEKVFKVVQNGNKDELKKLLAPNVEYNYVDKTYEGEEAAKAVVQLVKKVGAKAKQQKVEVKGDTATAHFQYENGDQRVETQAELHYEGDKVKKVQVKLTDEVKKVVHQG | 0.356
41 | DEESDKKFLEKIRKLFEDGDPDQFRKMFPPDATAVIGDKSVHGNQVEQAVNTFEKNRADHVRIDSFEVSNGRVDIDVVVNHNGEERRIKIVFIARNGRLEHMRFVST | 0.215
42 | DEESKKQIDNWLKAVQQGDPDQLVKNVDKDVTVEYGDKSIHGRESLMKTLEDKKKQWRLEFKSVDVDVHGDKARLDVDVVLQINGQPFRHTRTIHVHLHNGRVKHMRFRFDEQQQRDMDR | 1.12
43 | DEESLAKEFIKHVNDNADTGNPDDMAELFDPNARIEVGDKKYDGHKDITKLNEELNREADHIKYTINSVKRDGDFVRLDIEVRMDVNGKDVNHRYRANVAVTNGRLVVRSLTSS | 0.891
44 | DEESLDHLRKVLEKNDPDQLTELMDPDATAVIGNTEVHGREKVVTIMRRIYERADSIHIDRFSHQGDRLVADMQVNINGKKMRYEYVIRVHNGRIKYVKFHVTSEDVERDLTRAVS | 1.67
45 | DEESLRKFAKRVFRALQTGNPEDIHRLFDKDAHFVVGDKEVHGREQAIKFLSHIRRRADRISLKRMSVRGDKVSIDLQMTVDGHRTRFIVYIQVHNGRARRLKIEEN | 1.57
46 | DEESMHRMVTDLMHIIDSGNPDEAVKLADPNVQVTYGDRKYHGQDAVRDYIRELKKRVDTVNLKRVELSGEKATATAVFNVNGNRVDVEMTVTAQNGKIQSIDASVRDPDQKRKEKK | 0.8
47 | DEESNHDVARKLMRALETGDPDKLRELADKHARITVGEKTIHGREDASRFAKELRDRIDHATVKHMDVDGNKVVINMTVRVNGRDLEVFVTAIVTNGRIKHIRFQYTDEDKNKEVEG | 1.18
48 | DEESQARKFIKQYHDVLETGDENEARRLADENVKVHVGEFHYRGSDQYAHAVKRLRNKVDHIHMTLTEISVSNGEVNVVLKVVLNYNGTNDSFKMTMRADRVNGTLVLVEVKNG | 0.389
49 | DEESQKQMMKEMSDVWKHNDPDEAQKLADKDVKIRYGDREYHGREDFVSAMREFSKQADSITVKHMTVQGDKIVLDIIIQYDGQHREIVVIVHVHNGRIQELQIQDG | 0.637
50 | DEESRAQSFMSKFNDNLRRGDPEKLKTYMDPNVKVQVGEKRLNGREQAARFWVEIARHVDHISVEFKSLKVTGDKIKAKAIVVLDVNGQKRRQDVVLYAQIQGDTIRLKKVDAP | 1.07
